Results from the supplement of paper PMC11502859.

Test system: HEK293T
Test: median enrichment of reporter reads in eGFP-reduced (low/intermediate) vs eGFP-high sorted cells (eGFP-extension fusion abundance) (ratio); higher = stronger loss of eGFP-fusion protein abundance (more destabilising extension)
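Also: lentiviral eGFP-IRES-mCherry reporter pool sorted by FACS 96 h post-transduction, gated on mCherry-high cells, Illumina read counts normalized per million, median across four biological replicates.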

For “RKCQEWKIFLILVQHEVVFRSLLSLIAILRFVGFYERLLLSGLKSFLNVCFLRSVIQLCEYFVTDLFQWLLV [HINT3]”, the median enrichment was 11.3.
WGWGWTNNQARAEGFMERPLGDPR [S1PR2] gave a median enrichment of 3.36.
For EFLSHSPTSTTTGQLSPFPTL [RNASE13], the median enrichment was 0.565.
In the case of QSSF [PCNX4], the median enrichment is reported as 0.571.
In the case of “QSQPQLMPSQSQPPVTPSQSQPRVTPSQSQPHVTPYRSKSGKQKQSVPIPKTVSRKGTLKK [ADAM29]”, the median enrichment is reported as 0.14.
For RGPALPPCTSPGAERS [PRMT1], the median enrichment was 1.08.
With “RPGAQPCAAEDSRDWRRPRPATAGARGHLPGLLTLSPHWEWAPRGRASAVAASAPGRAGPPRGPVLVFCRRTQPPPIPDSSLG [TMUB1]” the median enrichment was 6.53.
LEIEKKKRISTQVFFFRNEDKI [ZNF24] showed a median enrichment of 2.65.
“RGAHGQDWWGLQDVRRVRCLALATLFLVGFCCCSCYFHL [PSMC3IP]” gave a median enrichment of 7.83.
Work on “QDTVNSSSKILACKHPLKFKRGKIKYNEF [ANKRD30BL]” yielded a median enrichment of 1.66.
For YEPEYSR [GBP4], the median enrichment was 0.833.
Work on “ECPLFLFLLSPFSSLRSIGPLLSIFITRCFPLKHAHATVTKTNNYHFPNFIQNHFSVFLFPTPPTTFNDEIP [PHYHIPL]” yielded a median enrichment of 15.5.
Substance “WSFSHSSPSQRCDGRWTLSGEDALLLGRCSGSFSGARTEAPCDFRPGSMWACNFLHSQLGPIPGFKMVAIPEESP [SUSD1]” has a median enrichment of 3.48.
Substance QHGETPSLLKIQKKLARHGGGRL [FBLIM1] has a median enrichment of 0.0978.
Work on WRLIIYQEC [PKIB] yielded a median enrichment of 7.89.
Substance CEQ [PRF1] has a median enrichment of 12.2.
WRFPLPSSQPP [MEF2D] gave a median enrichment of 2.36.
With KNQGCFEGKGSLSYALLYHQDYILKRKSSM [GPR65] the median enrichment was 11.5.
“YPWPPGLASSFWVSQAPLALTPLARSPSFRSS [PPFIA4]” showed a median enrichment of 16.
Substance LQIYVCYN [OR8I2] has a median enrichment of 6.8.
Substance YPVTL [SMCO1] has a median enrichment of 0.416.
In the case of RYCSTQPNL [BRPF1], the median enrichment is reported as 3.69.
Substance LNQSVFPACAELLI [ZP4] has a median enrichment of 3.4.
EEEEEEEEE [Glu09] was tested, and the median enrichment was 0.433.
For RCCCHGGLGQRGERSVLEA [OBSCN], the median enrichment was 11.1.
“LGHRQESVWAGLFNMVFAVLPPWGPWSDNIVSLVRLSRCLIRTANGASPTPPRVRPPFHQRVSSQRPPASCPAAQEEKEGLNS [PDGFB]” gave a median enrichment of 4.11.
In the case of TTTTTT [Thr06], the median enrichment is reported as 0.322.
With RIFCLVASQLGVL [GXYLT2] the median enrichment was 6.32.
Substance SKERHTSEQRSYMCTK [DEFB114] has a median enrichment of 0.227.
Work on SRR [TMEM52] yielded a median enrichment of 0.803.
For CGACYGLNCAPK [ZNF81], the median enrichment was 1.07.
With “YGAKRCLSEVGHFLKIQIFISLFRHGCLQVFHCLLLLEI [TMEM246]” the median enrichment was 19.9.
For GGGG [Gly04], the median enrichment was 5.17.
LIFFYQEG [PTEN] was tested, and the median enrichment was 5.69.
RQRRD [PVR] gave a median enrichment of 0.306.
For RSKDNGVFFL [USP44], the median enrichment was 1.94.
“WTHPLVVDRLPGTTIIPGPPRASEFETLAEIK [TBC1D7]” gave a median enrichment of 4.38.
Work on “RKPLNVRNVGRPFNIITNFMDIIDFIFVRTLMNVKDVGNALPVVETLEYIREFILVRNHINVKNVGKPLVIVQTC [ZNF780B]” yielded a median enrichment of 7.09.
In the case of WQLPGDSRLSDSLQEKTVRPPFGPH [SYCE2], the median enrichment is reported as 0.972.
RRRRRRRRR [Arg09] gave a median enrichment of 1.11.
Substance “LTYLSLSRSQAVRGNRSHLLSLQASVCLCLRTWILDFNDAVDNDGRKGVGC [MGA]” has a median enrichment of 8.5.
In the case of PPPP [Pro04], the median enrichment is reported as 0.659.
Substance “LVSLPLVSAWQPPPPTYHPSPITQVNVTNLPCLHINLYIFGCSPYLMAVIIYRYVYPCYLVVSFSRGGTVFYSSLCPLFLSSV [PGLYRP4]” has a median enrichment of 2.37.
Work on WLHW [RIMKLB] yielded a median enrichment of 3.98.
“GYSHPGTEKAADGDCLPQPQQHLGLQLLESYHPRRQAQPGRGEEWAVKMKPHAQSPPIPHAAPPQSQATSCLLLVGGGLLSPS [LGALS9]” showed a median enrichment of 3.94.
In the case of YVFLQCVLQARFIITYRFMISKIK [CLEC3A], the median enrichment is reported as 9.75.
For EKYHLPYAARDLQTFFLPFW [SPAG11A], the median enrichment was 6.64.
In the case of YGFHKHP [SELP], the median enrichment is reported as 1.36.
KKKKK [Lys05] was tested, and the median enrichment was 0.46.
With QLICYVNLSFAFLFD [DGKB] the median enrichment was 13.9.
“SWPPPFPPPAPSPSPTRQLIPGLLSDPFSRGTSGQCPTTHTHHHLTGSSLISDNPHPHCFWGSLSHLSHPVSCLCLSWCLSGL [CCDC97]” gave a median enrichment of 5.65.
Substance SDQLVCL [PPP1R15A] has a median enrichment of 0.401.
WEKSYKCKECGKPLDDPQTLMNMRKFIL [ZNF141] showed a median enrichment of 11.7.
“SKCVLRASLFFTAAATFPHCLRCREGQVPASTGISDKPRAQPTRGSSLHAHTGYGDGGLQVSSARGLSLWHPHSCPAREALVV [SSNA1]” showed a median enrichment of 5.95.
Work on “QPPARQRGHRRASPECRPWVAGPGSLVPPGGHRHRLAWQAGPLCHPLLGACRPFPSTPQVFQALLPQFPKWNHLTSAAPDLPG [SECTM1]” yielded a median enrichment of 4.68.
For YISTLFLKLTFQCH [GPNMB], the median enrichment was 7.14.
WNRIEQNRIE [PCSK5] showed a median enrichment of 0.778.
Work on SDFDHLNFL [IL1RL1] yielded a median enrichment of 0.533.
QWPSDDS [COL15A1] showed a median enrichment of 0.307.
“QSTLTYFQKYNFRYHANFMTSKGCCYNVLTER [TDGF1]” gave a median enrichment of 6.46.
Substance QCITECGHQPRAAW [FOXJ2] has a median enrichment of 0.515.
With KVKP [TRPC5] the median enrichment was 0.338.
Substance MMMMMMMM [Met08] has a median enrichment of 8.55.
Work on LHSL [ZNF443] yielded a median enrichment of 0.555.
For “YSSSPVDEHLGWKFCSHTQDTAQDPAGVFFSVVRCTIGLMSIVLEDERKLRRTRSTDPDVIKHFVVSLSHR [BICD1]”, the median enrichment was 3.59.
For LSFCLA [UTP3], the median enrichment was 8.65.
SNVIPLKRKMNNTLN [HRG] gave a median enrichment of 0.435.
For YCRREVSSLCLVCNSSWA [REG3A], the median enrichment was 7.13.
LTGLPTWLPT [AANAT] showed a median enrichment of 1.93.
For YKKRLLLGLDR [Degron FEM1B], the median enrichment was 9.09.
Work on QIL [TMEM244] yielded a median enrichment of 0.849.
For EYKLS [UBA6], the median enrichment was 0.363.
In the case of REAMPWSWD [SLN], the median enrichment is reported as 0.623.
YILYNCEINLR [OR4F4] gave a median enrichment of 5.6.
For “SCIAGLSSAASTECQAPHSAHPWALLRGPKTQEEERSACPLPPPLQYSLCAVV [SYCN]”, the median enrichment was 10.8.
For QIRI [TADA1], the median enrichment was 0.507.
WAGLRGMVRTSPP [NANS] was tested, and the median enrichment was 6.83.
“YPGASWLRLAPSGHLPWSDPFQMKCGDIDLFFFFFETEFHSCCPVWSAMAQSQLTATSASWVQAILLPQPPK [SPC24]” was tested, and the median enrichment was 7.7.
With “YPAALPGGGGIKRPESPGCPRRDANHPVLSTGPSSLFHPHFC [E2F7]” the median enrichment was 6.7.
“QGPGLRREALSQRLPHPSPLAFNSVASCSPAAEPPRIRLHVTLKLTNFHGPH [FYN]” showed a median enrichment of 20.4.
YRSAVQENVMLGTPSSVVLASHASAAELAE [DEFA4] showed a median enrichment of 2.45.
Work on CEGYYPFYYGTMPCVKNNHPLAYSH [DPY19L2] yielded a median enrichment of 8.92.
With SVGTAQWRRGYSPG [HTR3A] the median enrichment was 28.
Substance QEGQDLYSRLVQQRLMD [TAP2] has a median enrichment of 0.376.
In the case of SLEWTTAKLAPSSDRKPPCVGDCRHAK [TM9SF4], the median enrichment is reported as 1.73.
In the case of RHRGKRRKSC [CLDN1], the median enrichment is reported as 0.381.
For QCYLVSF [TRMT10A], the median enrichment was 4.82.
“LGPVAGRPAPAPPPPTGVPAHSCGKGGEGRRARPEQGAGGRAQYLTRAAVLINVPMAGPRSEPASSATVTFSLRDGGGGSLSR [DUSP9]” gave a median enrichment of 2.08.
Work on LRGPSPPPMAGG [Degron KLHDC2] yielded a median enrichment of 5.1.
“LRRRMSLRAPSWSGPRHPGTSALPPPALLHHMSS [ADHFE1]” was tested, and the median enrichment was 18.5.
YQLFAISCTQTCVIYAPGNQ [MAST2] was tested, and the median enrichment was 7.02.
For YLFFFFLIEVLVL [FAM160A1], the median enrichment was 25.1.
In the case of YGSRRILTHRKGAHGTQVKEVLLARYGGSRL [SMYD4], the median enrichment is reported as 5.15.
Substance “TLTMPRPHPVQHSQSSHLHPRTVGAGRHFPLEHVLRSITLGPTARLSLPPGSCMRSPDQLDHHFAQPLNTMHQASISQFPLAF [SCARA5]” has a median enrichment of 3.72.
Substance NNNNN [Asn05] has a median enrichment of 0.217.
“RLWSRHPAEWGPRGCQLGALPLAATLWSGRVLHHQEDPILSSVSCPSCCGMLSTEPTAHLPLHLPESVSICNKRQPRLPRAVS [INAFM1]” gave a median enrichment of 3.36.
Substance “YNQGSVTPCHAPTVEIPPLLKFFMVVSLPGSLMLS [KCNS1]” has a median enrichment of 11.7.
In the case of LNGVQAQRPLGVMTKCSCTTVLKELRLLPFF [DYTN], the median enrichment is reported as 8.97.
Work on WYTF [PNISR] yielded a median enrichment of 2.74.
In the case of KRTQPPSAQREATSQPRGGRIRKQSHS [CCK], the median enrichment is reported as 0.
“LPCSSTVTTRQALLSAEGVIPGPPVCVIVTMPCRDILEATHGWRNPEPPPQPTWLFVDSRRQGCAWLLTCC [PFKFB4]” was tested, and the median enrichment was 11.1.
KELFQFIE [FOXJ3] was tested, and the median enrichment was 0.495.
REA [NPSR1] showed a median enrichment of 4.09.
YELNKNKIQV [CXorf66] was tested, and the median enrichment was 0.339.
SILFHLILALHLLYISPE [CLRN3] gave a median enrichment of 9.21.
For “RSSPTKGPPETPGTISVSSHQTLALFLLLFGDLHCQNYQFQVNFVGEFPPPPSSGSPRSNVPPATFPLWPPAELICLSHRSWC [S100A7A]”, the median enrichment was 7.95.
SYLQCPCCVALQMRPLQTRPA [WDCP] showed a median enrichment of 8.46.
KQP [PSG11] was tested, and the median enrichment was 0.269.
Substance “WRATGPQQCEGSLAAHPAAGAQPLPGMRLSADGETATQSFGLCVCVCVCVCVCAHPRVPVCVRILPPGAEVPWVSPLLCNGLL [FGFR3]” has a median enrichment of 3.69.
WACYFHGVCQ [OR5D18] gave a median enrichment of 4.25.
Work on YVPTK [ZNF334] yielded a median enrichment of 0.591.
Work on NRRRRWRERQR [Degron FEM1C] yielded a median enrichment of 21.1.
Work on SSSSSSS [Ser07] yielded a median enrichment of 0.279.
“YKGAEEGWSGWAGGPTSSPQHLPPTQLGQRGQDVCLPLRDRCLCPHTATGV [SEMA3G]” was tested, and the median enrichment was 2.63.
In the case of QSSQSSARP [SNX32], the median enrichment is reported as 0.324.
Substance YSQLKECEILNY [MTREX] has a median enrichment of 1.31.
YVGRSPRPLPSSGDNQQ [CPNE9] showed a median enrichment of 0.56.
LALYLGSGQELHLGTNSC [ABCF2] gave a median enrichment of 6.15.
KQEWQSKLKL [UHRF1BP1L] gave a median enrichment of 0.342.
In the case of LEPAAPASHLCLERTSAACQF [ECHS1], the median enrichment is reported as 0.709.
CSPMPAHL [CDNF] gave a median enrichment of 7.02.
WPEPLADITAGDEEPGLLLLLPVAPGVEVG [LIMD1] was tested, and the median enrichment was 12.
In the case of QLRILKRSHGKTS [NBN], the median enrichment is reported as 7.35.
With QLFLKMAIVYEICISVSLYKF [NUP133] the median enrichment was 11.5.
